Experimental data: US20100196934A1
Several values for one entry are separate records, joined by “and”; a condition that tells them apart may be missing. Identical values can stand only once. Like-named read-outs stand apart in the source and are kept apart here.

What was measured:
[1] = biological target: Deer recombinant PrP (deer); test: direct ELISA, coated denatured rPrP 1 ng/assay
[2] = biological target: Sheep recombinant PrP (sheep); test: direct ELISA, coated denatured rPrP 1 ng/assay
[3] = biological target: Bovine recombinant PrP (bovine); test: direct ELISA, coated denatured rPrP 1 ng/assay
[4] = biological target: Mouse recombinant PrP (mouse); test: direct ELISA, coated denatured rPrP 1 ng/assay
[5] = biological target: Human recombinant PrP (human); test: direct ELISA, coated denatured rPrP 1 ng/assay
[6] = biological target: Deer recombinant PrP (deer); test: direct ELISA, coated denatured rPrP 0.1 ng/assay
[7] = biological target: Sheep recombinant PrP (sheep); test: direct ELISA, coated denatured rPrP 0.1 ng/assay
[8] = biological target: Bovine recombinant PrP (bovine); test: direct ELISA, coated denatured rPrP 0.1 ng/assay
[9] = biological target: Mouse recombinant PrP (mouse); test: direct ELISA, coated denatured rPrP 0.1 ng/assay
[10] = biological target: Human recombinant PrP (human); test: direct ELISA, coated denatured rPrP 0.1 ng/assay
[11] = biological target: Mouse BH PrP^Sc (mouse); test: direct ELISA, coated denatured mouse BH PrP^Sc 0.1 mg BH/assay
[12] = biological target: Mouse BH PrP^Sc (mouse); test: direct ELISA, coated denatured mouse BH PrP^Sc 1 mg BH/assay
[13] = biological target: Syrian hamster PrP^C (normal SHa brain homogenate) (Syrian hamster); test: sandwich ELISA, capture POM17; normal SHa BH, trypsin 25 ug/mL, GdnHCl-denatured
[14] = biological target: Syrian hamster PrP^Sc (scrapie-infected SHa brain homogenate) (Syrian hamster); test: sandwich ELISA, capture POM17; infectious SHa BH, PK 25 ug/mL, GdnHCl-denatured
[15] = biological target: Syrian hamster PrP^C (normal SHa brain homogenate) (Syrian hamster); test: sandwich ELISA, capture 3F4; normal SHa BH, trypsin 5 ug/mL, NaOH-denatured
[16] = biological target: Syrian hamster PrP^C (normal SHa brain homogenate) (Syrian hamster); test: sandwich ELISA, capture 3F4; normal SHa BH, PK 20 ug/mL, NaOH-denatured
[17] = biological target: Syrian hamster PrP^C (normal SHa brain homogenate) (Syrian hamster); test: sandwich ELISA, capture 3F4; normal SHa BH, PK 0 ug/mL, NaOH-denatured
[18] = biological target: Human PrP^C (normal human plasma; normal human brain homogenate) (human); test: sandwich ELISA, capture 3F4; normal human plasma, trypsin 0 ug/mL, not denatured
[19] = biological target: Syrian hamster PrP^C (normal SHa brain homogenate) (Syrian hamster); test: sandwich ELISA, capture 3F4; normal SHa BH, PK 100 ug/mL, NaOH-denatured
[20] = biological target: Syrian hamster PrP^Sc (scrapie-infected SHa brain homogenate) (Syrian hamster); test: sandwich ELISA, capture 3F4; scrapie-infected SHa BH, PK 0 ug/mL, NaOH-denatured
[21] = biological target: Syrian hamster PrP^Sc (scrapie-infected SHa brain homogenate) (Syrian hamster)
[22] = biological target: Syrian hamster PrP^C (normal SHa brain homogenate) (Syrian hamster); test: sandwich ELISA, capture 3F4; normal SHa BH, trypsin 100 ug/mL, not denatured
[23] = biological target: Syrian hamster PrP^C (normal SHa brain homogenate) (Syrian hamster); test: sandwich ELISA, capture 3F4; normal SHa BH, trypsin 25 ug/mL, not denatured
[24] = biological target: Syrian hamster PrP^C (normal SHa brain homogenate) (Syrian hamster); test: sandwich ELISA, capture 3F4; normal SHa BH, trypsin 10 ug/mL, NaOH-denatured
[25] = biological target: Syrian hamster PrP^C (normal SHa brain homogenate) (Syrian hamster); test: sandwich ELISA, capture POM17; normal SHa BH, PK 25 ug/mL, GdnHCl-denatured
[26] = biological target: Syrian hamster PrP^C (normal SHa brain homogenate) (Syrian hamster); test: sandwich ELISA, capture 3F4; normal SHa BH, trypsin 0 ug/mL, not denatured
[27] = biological target: Syrian hamster PrP^C (normal SHa brain homogenate) (Syrian hamster); test: sandwich ELISA, capture 3F4; normal SHa BH, trypsin 0 ug/mL, NaOH-denatured
[28] = biological target: Syrian hamster PrP^C (normal SHa brain homogenate) (Syrian hamster); test: sandwich ELISA, capture 3F4; normal SHa BH, trypsin 50 ug/mL, not denatured
[29] = biological target: Syrian hamster PrP^Sc (scrapie-infected SHa brain homogenate) (Syrian hamster); test: sandwich ELISA, capture 3F4; infectious SHa BH, PK 25 ug/mL, GdnHCl-denatured
[30] = biological target: Syrian hamster PrP^C (normal SHa brain homogenate) (Syrian hamster); test: sandwich ELISA, capture 3F4; normal SHa BH, trypsin 50 ug/mL, NaOH-denatured
[31] = biological target: Syrian hamster PrP^C (normal SHa brain homogenate) (Syrian hamster); test: sandwich ELISA, capture 3F4; normal SHa BH, trypsin 20 ug/mL, NaOH-denatured
[32] = biological target: Syrian hamster PrP^C (normal SHa brain homogenate) (Syrian hamster); test: sandwich ELISA, capture 3F4; normal SHa BH, PK 50 ug/mL, NaOH-denatured
[33] = biological target: Syrian hamster PrP^C (normal SHa brain homogenate) (Syrian hamster); test: sandwich ELISA, capture 3F4; normal SHa BH, PK 5 ug/mL, NaOH-denatured
[34] = biological target: Syrian hamster PrP^C (normal SHa brain homogenate) (Syrian hamster); test: sandwich ELISA, capture 3F4; normal SHa BH, trypsin 25 ug/mL, GdnHCl-denatured
[35] = biological target: Syrian hamster PrP^C (normal SHa brain homogenate) (Syrian hamster); test: sandwich ELISA, capture 3F4; normal SHa BH, PK 25 ug/mL, GdnHCl-denatured
[36] = biological target: Syrian hamster PrP^C (normal SHa brain homogenate) (Syrian hamster); test: sandwich ELISA, capture 3F4; normal SHa BH, trypsin 100 ug/mL, NaOH-denatured
[37] = biological target: Syrian hamster PrP^C (normal SHa brain homogenate) (Syrian hamster); test: sandwich ELISA, capture 3F4; normal SHa BH, PK 10 ug/mL, NaOH-denatured
[38] = biological target: Syrian hamster PrP^Sc (scrapie-infected SHa brain homogenate) (Syrian hamster); test: sandwich ELISA, capture 3F4; scrapie-infected SHa BH, PK 5 ug/mL, NaOH-denatured

mAb to prion 7D9 (antibody) was tested, and the RLU [1] was 117 RLU, the RLU [2] was 993 RLU and the RLU [3] was 961 RLU. For the same substance, the RLU [4] was 769 RLU, the RLU [5] was 66.1 RLU and the RLU [6] was 121 RLU. For the same substance, the RLU [7] was 230 RLU, the RLU [8] was 149 RLU and the RLU [9] was 118 RLU. The RLU [10] was 81.4 RLU, the RLU [11] was 159 RLU and the RLU [12] was 614 RLU.

With Mouse anti Prion (SAF-83) (antibody) the RLU [1] was 125 RLU, the RLU [2] was 115 RLU and the RLU [3] was 50.8 RLU. It also gave an RLU [4] of 2230 RLU, an RLU [5] of 67 RLU and an RLU [6] of 122 RLU. For the same substance, the RLU [7] was 98.1 RLU, the RLU [8] was 45.7 RLU and the RLU [9] was 181 RLU. The RLU [10] was 65.2 RLU, the RLU [11] was 274 RLU and the RLU [12] was 1730 RLU.

POM2 antibody showed an RLU [13] of 70.6 RLU, an RLU [14] of 596 RLU and an RLU [15] of 33.2 RLU. The RLU [16] was 37.1 RLU, the RLU [17] was 1950 RLU and the RLU [18] was 195 RLU. For the same substance, the RLU [19] was 4.6 RLU, the RLU [20] was 2290 RLU and the RLU [21] was 2370 RLU and 2250 RLU. It also gave an RLU [22] of 11.7 RLU, an RLU [23] of 20.5 RLU and an RLU [24] of 19.7 RLU. The RLU [25] was 13.4 RLU, the RLU [26] was 2940 RLU and the RLU [27] was 2140 RLU. For the same substance, the RLU [28] was 14.9 RLU, the RLU [29] was 527 RLU and the RLU [30] was 3.4 RLU. For the same substance, the RLU [31] was 8.5 RLU, the RLU [32] was 15.8 RLU and the RLU [33] was 84.1 RLU. The RLU [34] was 21.4 RLU, the RLU [35] was 10 RLU and the RLU [36] was 3.4 RLU. It also gave an RLU [37] of 50.2 RLU and an RLU [38] of 2310 RLU.

Substance Mouse anti Prion (SAF-61) (antibody) has an RLU [1] of 190 RLU, an RLU [2] of 113 RLU and an RLU [3] of 136 RLU. For the same substance, the RLU [4] was 464 RLU, the RLU [5] was 101 RLU and the RLU [6] was 150 RLU. The RLU [7] was 115 RLU, the RLU [8] was 67.6 RLU and the RLU [9] was 142 RLU. The RLU [10] was 90.4 RLU, the RLU [11] was 169 RLU and the RLU [12] was 579 RLU.

mAb to prion BDI115 (antibody) showed an RLU [1] of 160 RLU, an RLU [2] of 104 RLU and an RLU [3] of 177 RLU. For the same substance, the RLU [4] was 86.7 RLU, the RLU [5] was 74.3 RLU and the RLU [6] was 105 RLU. For the same substance, the RLU [7] was 108 RLU, the RLU [8] was 59.1 RLU and the RLU [9] was 54.7 RLU. The RLU [10] was 48 RLU, the RLU [11] was 119 RLU and the RLU [12] was 116 RLU.

HuM D13 (antibody) showed an RLU [1] of 130 RLU, an RLU [2] of 161 RLU and an RLU [3] of 93.1 RLU. For the same substance, the RLU [4] was 294 RLU, the RLU [5] was 69.9 RLU and the RLU [6] was 232 RLU. It also gave an RLU [7] of 179 RLU, an RLU [8] of 75.1 RLU and an RLU [9] of 117 RLU. For the same substance, the RLU [10] was 89.5 RLU, the RLU [11] was 239 RLU and the RLU [12] was 664 RLU.
